We go through six molecules from US20220281948A1 (published 2022).

Assay in all cases: multimer staining
The target in experiment [1] is T1, MAGE-A2 peptide on HLA-DPA1*01:03 / HLA-DPB1*04:01 (human).
T1 peptide: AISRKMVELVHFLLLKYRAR

Experiment [2] has as its target T2, CCND1 peptide on HLA-DPA1*01:03 / HLA-DPB1*04:01 (human).
T2 peptide: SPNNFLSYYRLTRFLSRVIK

The target in experiment [3] is T3, MUC5AC peptide on HLA-DPA1*01:03 / HLA-DPB1*04:01 (human).
T3 peptide: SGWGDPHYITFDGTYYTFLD

For experiment [4], the target named is T4, LGSN peptide on HLA-DPA1*01:03 / HLA-DPB1*04:01 (human).
T4 peptide: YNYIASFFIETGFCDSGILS

In experiment [5] the target is T5, HSD17B12 peptide on HLA-DPA1*01:03 / HLA-DPB1*04:01 (human).
T5 peptide: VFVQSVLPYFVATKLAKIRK

B1: 03-MAGE-A2108-127 (TCR)
alpha TRAV36/DV7*04 TRAJ40*01 CDR3: CAVEVNSGTYKYIF
beta TRBV2*01 TRBJ1-1*01 CDR3: CASRRDLAAFF
Turning to B1, the binding result in experiment [1] is recorded as “recognises”.

B2: 06-MAGE-A2108-127 (TCR)
alpha TRAV19*01 TRAJ40*01 CDR3: CALSVGTYKYIF
beta TRBV7-9*01 TRBJ2-5*01 CDR3: CASSPGTGGRETQYF
Consider B2, for which, in experiment [1], the binding result is “recognises”.

B3: 03-CCND1219-238 (TCR)
alpha TRAV2*01 TRAJ21*01 CDR3: CAVCTLYNFNKFYF
beta TRBV6-5*01 TRBJ2-1*01 CDR3: CASLTDNNEQFF
For the molecule B3, the binding result in experiment [2] was “recognises”.

B4: 05-MUC5AC4922-4941 (TCR)
Valpha: QTVTQSQPEMSVQEAETVTLSCTYDTSESNYYLFWYKQPPSRQMILVIRQEAYKQQNATENRFSVNFQKAAKSFSLKISDSQLGDTAMYFCAFMKRAETSGSRLTFGEGTQLTVNP
beta TRBV6-2*01 TRBJ2-5*01 CDR3: CASSYWPTRETQYF
With B4, in experiment [3], the binding result is “recognises”.

B5: 05-LGSN296-315 (TCR)
alpha TRAV9-2*03 TRAJ32*01 CDR3: CALSDLSYGGATNKLIF
beta TRBV27*01 TRBJ1-5*01 CDR3: CASSKGQGLGNQPQHF
Turning to B5, the binding result in experiment [4] was “recognises”.

B6: 05-HSD17B12225-244 (TCR)
alpha TRAV22*01 TRAJ18*01 CDR3: CAVAPYDRGSTLGRLYF
beta TRBV19*01 TRBJ2-5*01 CDR3: CASSTGQGLETQYF
With B6, the binding result in experiment [5] is “recognises”.
